Experimental data as given in patent US20100181197A1, “ISOELECTRIC POINT MARKERS” (GE HEALTHCARE BIO-SCIENCES AB, priority 2007, published 2010).
Ends that are not written are not given here.

Assay: Isoelectric focusing of CY5-labelled pI markers in IPG strips, fluorescence scan
Assay type: physicochemical
Settings: linear IPG pH 3.70-4.05, 22 cm strip, 8 M urea, 20° C., 129 kVh, 0.3 μg/strip
Method: The amino acid sequences of the isoelectric point markers were selected essentially as described in Shimura, K. et al, Electrophoresis, (2000), 21, 603-610. The markers contain a minimum of two […] groups with pK values in the vicinity of the pI value of the corresponding marker. The pH scale is a pH scale defined for isoelectric focussing in 8M urea and 20° C. as described in Bjellqvist, B. et al, Electrophoresis, (1993), 14, 1357-1365, Bjellqvist, B. et al, Electrophoresis, (1994), 15, 529-539.
3.2 Sample application was performed with polyacrylamide gel pieces, cast as 1 mm thick gel of the size 260×110 mm on a GelBond PAGE film. In addition to acrylamide (38.8 gram/litre) and bisacrylamide (1.2 gram/litre) the gel polymerising solution contained 15.0 mM Immobiline pK 3.6 and 5.9 mM Immobiline pK 9.3. The polymerisation initiators used were ammonium persulfate and tetramethyl ethylenediamine. The gel was extensively washed in water (10 wash cycles of 20 minutes using 200 ml water/wash). To the last wash was added 2% glycerol. The gel was then dried and cut to generate a number sample application gel pieces of the size 43×7 mm.
Four, 22 cm long IPG strips were re-swollen overnight in 250 μl 8 M urea solution containing 1% Pharmalyte pH 2.5-5 and a trace of bromophenol blue. In parallel, four sample application gel pieces were re-swollen in 315 μl sample solution containing 300 μg yeast protein in 8 M urea to which 0.3 μg of the pI marker had been added.
The four re-swollen IPG strips were positioned in a ceramic manifold in the IPGPHOR™ 3 with the GelBond film downwards. At the basic/cathodic ends of the IPG strips, paper electrode wicks (10×7×1 mm) to which 150 ul water had been added, were positioned on top of the IPG strips with an overlap of 2 mm to establish electric contact. At the anodic end, the wetted electrode wick was positioned 39 mm away from the acidic end of the IPG strip. The re-swollen acidic sample application gel was positioned with the gel side down as a bridge between the paper electrode wick and the IPG strip to give contact both with the paper wick and with the IPG strip through a 2 mm overlap region. The anodic and cathodic electrodes were finally positioned on the anodic and cathodic paper electrode wicks respectively and a light pressure was applied on the back of the sample application gels at the over lap regions with the paper electrode wicks and the IPG strips respectively.
3.3 Focusing was then performed at 20° C. with maximum current set to 50 uA/strip with the following voltage settings:
The focusing experiment was performed with current limitations from 1000V onwards; 2500 V was reached after 5 hours and the voltage only changed slowly to reach a final voltage of 2715 V after 52 hours 23 minutes and a total volthourproduct of 129 kilovolthours.
Upon completion, the gel strips were transferred to a TYPHOON™ 9400 imager and scanned in the fluorescence mode at 633 nm (FIG. 3). From the focusing positions the pI-value for the marker was determined to be 3.86.
Focusing was performed in IPG strips pH 3.4-4.9 containing a non-linear pH-gradient adjusted to give an even distribution of peptides in the focused strip. The experiment was run essentially as described in Example 3. For sample application, the same type of polyacrylamide gel applicator was used, this time re-swollen in an 8M urea solution containing 30 μg of the digested yeast proteins and 0.3 μg of each of the four pI-markers. Focusing was continued for 47 hours 45 minutes and the total volthourproduct was 207 kVh.

Row | Substance | pI-value for the marker from focusing positions
1 | H2N-Asp-Gly-Asp-Gly-Lys(CY™5)-COOH (H-DGDGK(Cy5)-OH) [Compound xvii] | 3.86

Same assay, conditions: marker reacted at C-terminal lysine with CY5; experimental pI

Row | Substance | pI (exp) pI/marker
2 | H2N-Gly-Gly-Glu-Gly-Gly-Glu-Gly-Lys(CY™5)-COOH (H-GGEGGEGK(Cy5)-OH) [xxiv] | 4.42
3 | H2N-Gly-Glu-Glu-Gly-Gly-Lys(CY™5)-COOH [Compound xx] | 4.44
4 | H2N-Asp-Gly-Asp-Gly-Lys(CY™5)-COOH (H-DGDGK(Cy5)-OH) [Compound xvii] | 3.86
5 | H2N-Glu-Gly-Glu-Gly-Lys(CY™5)-COOH (H-EGEGK(Cy5)-OH) [xxiii] | 4.28
6 | H2N-Gly-Glu-Gly-Gly-Glu-Gly-Glu-Lys(CY™5)-COOH (H-GEGGEGEK(Cy5)-OH) [xix] | 4.22
7 | H2N-Gly-Gly-Gly-Gly-Glu-Glu-Lys(CY™5)-COOH (H-GGGGEEK(Cy5)-OH) [Compound xxi] | 4.56
8 | H2N-Glu-Gly-Asp-Gly-Lys(CY™5)-COOH (H-EGDGK(Cy5)-OH) [Compound xxii] | 4.18
9 | H2N-Gly-Asp-Gly-Gly-Asp-Gly-Gly-Lys(CY™5)-COOH [xviii] | 4.02

Assay: Experimentally determined pI-values of tryptic peptides focused in IPG strips
Assay type: physicochemical
Settings: tryptic yeast peptides focused in IPG strips 3.7-4.05
From the text: Both methods are based on the equilibria of amino acid residues participating in reactions with water and can be described with one pK-value for each type of residue, which is independent of the nature of neighbouring amino acids. The consequence of this assumption is that for large groups of tryptic peptides, the same pI-value will be predicted. […] The approaches described above will result in the same pI-value for all these peptides. The value predicted at the Expasy server is 4.53, which can be compared with the value resulting from the experimental distribution, i.e. 4.49±0.075.
It would be expected that the presence of two negatively charged amino acid residues at limited distances from each other along the amino acid chain should result in an increase of the pK-values involved and a concomitant increase of the pI-value, while two positively charged residues at limited distances from each other along the peptide chain could be expected to give reversed effect, i.e. a decrease in pK-values and a concomitant decrease of the pI-value. In reality, no such effects can be detected. […] In the peptides, C-terminal amino acids are either lysine or arginine. […] This is explained by the presence of two oppositely charged amino acid residues in the chain, thereby favouring configurations with a short distance between the two residues. As a consequence, pK-values are affected also when these residues are separated by up to 5 amino acid residues. On the other hand, the presence of two equally charged residues favours configurations with the longest possible distance between the charged groups and for neighbouring charged residues, the average distance becomes too long to generate a detectable effect on pK and pI values.
The C-terminal, which in tryptic digests is either lysine or arginine contains both a positively charged group and a negatively charged group, gives notable effects on resulting pI-values only when the neighbouring group is charged. At larger distances, for peptides having two internal glutamic acid residues (no glutamic acid in position 1-6), the C-terminal amino acid being either lysine or arginine, the effect on pI is negligible (Table 2).
3.1 Yeast proteins (Saccharomyces cerevisiae, type II (1 gram) were dissolved in a 10 ml solution containing 50 mM Tris-HCl pH 8.0, 6 M urea and 10 mM DDT. The solution was allowed to stand for 1 hour at 37° C. and then allowed to react with iodoacetamide (addition of 250 μl 0.8 M iodoacetamide solution) for 30 minutes at room temperature to […] the cysteine groups. The sample was then sonicated 5 times for 30 seconds followed by dilution of the sample in 50 mM Tris-HCl, 1 mM CaCl2 (1 ml sample to 9 ml Tris-Cl buffer solution). 2.5 ml of diluted sample was added to a container with 250 μg trypsin (4 containers for 10 ml diluted sample) and digestion was allowed to proceed for 2 hours at 37° C. The sample was then concentrated by evaporation to 2 ml. 1 ml of digested concentrated sample was then added to a NAP-10 column pre-equilibrated with 15 ml 8 M urea solution and the sample was eluted with 1.5 ml urea. After a protein determination the sample was aliquoted and frozen until used.
A total of 6612 tryptic yeast peptides have been identified after focusing in IPG strips 3.7-4.05. Sixteen of these peptides have a structure (Table 5) which should give them a pI in close agreement with the pI of the marker. The average value found for these peptides 3.80±0.03 is in reasonable agreement with the value found for the pI marker.

Row | Substance | pI-value
10 | DGDQVVFMVSQK [tryptic yeast peptide identified after focusing in IPG strips 3.7-4.05] | 3.760
11 | DIDILVNNAGK [tryptic yeast peptide identified after focusing in IPG strips 3.7-4.05] | 3.828
12 | DADLLNSVVVQR [tryptic yeast peptide identified after focusing in IPG strips 3.7-4.05] | 3.775
13 | DTDMVLIPAGVPR [tryptic yeast peptide identified after focusing in IPG strips 3.7-4.05] | 3.808
14 | DLDAAQGTLK [tryptic yeast peptide identified after focusing in IPG strips 3.7-4.05] | 3.815
15 | DCDSLSSLVTR [tryptic yeast peptide identified after focusing in IPG strips 3.7-4.05] | 3.765
16 | DLDAVNGSNGSK [tryptic yeast peptide identified after focusing in IPG strips 3.7-4.05] | 3.790
17 | DQDSAVVSSNIK [tryptic yeast peptide identified after focusing in IPG strips 3.7-4.05] | 3.823
18 | DIDNGYTLSLMYK [tryptic yeast peptide identified after focusing in IPG strips 3.7-4.05] | 3.800
19 | DSDVTWLYGPIVR [tryptic yeast peptide identified after focusing in IPG strips 3.7-4.05] | 3.800
20 | DTDYVPIVVVGNK [tryptic yeast peptide identified after focusing in IPG strips 3.7-4.05] | 3.840
21 | DNDVQLAATK [tryptic yeast peptide identified after focusing in IPG strips 3.7-4.05] | 3.800
22 | DLDLPTQQILVAR [tryptic yeast peptide identified after focusing in IPG strips 3.7-4.05] | 3.830
23 | DGDYNLVGSK [tryptic yeast peptide identified after focusing in IPG strips 3.7-4.05] | 3.746
24 | DVDLVNAAR [tryptic yeast peptide identified after focusing in IPG strips 3.7-4.05] | 3.800
25 | DSDYIPVVVVGNK [tryptic yeast peptide identified after focusing in IPG strips 3.7-4.05] | 3.825
